Experiments:
[1] = biological target: ScuR-StrepTag (Streptococcus salivarius HSISS4); assay: EMSA: Cy3 PsptA probe, constant ScuR-StrepTag, decreasing sBI7; peptide-dependent ternary complex
ScuR/SarF system = assay: cell-based or functional assay

Binder: LPFWLILG [sBI7]
- lowest peptide concentration at which ScuR shifts the PsptA probe [1]: 0.08 nM
- peptide concentration to which the PsptA, PslvX and PcomS luxAB reporters respond in WT background (ScuR/SarF system): < 1 nM
